# Test results taken from the supplement of paper PMC7125110.
# ± gives the standard error. Variants at the floor of the assay were thinned out.
# B1: glmS ribozyme (parent)
# chain: AUAAAAGCGCCAGAACUACAGAAAUGUAGUUGACGAGGAGGAGGUUUAUCGAAUUUUCGGCGGAUGCCUCCAAA
# Assays:
# Details in all cases: with glucosamine-6-phosphate
# [1] = variants of: B1; test: self-cleavage kobs at 40 uM GlcN6P; higher = faster cleavage; RNA array
# Outline: (§1)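 A hybridised Cy3 probe tracked barcoded ribozyme variants, transcribed in situ by E. coli RNA polymerase on sequenced MiSeq chips, at 37 °C. The variants received 40 μM to 10 mM glucosamine-6-phosphate in HEPES/KCl/Mg(OAc)2 buffer. kobs came from decay fits and kcat and KM from weighted Michaelis–Menten fits.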
# [2] = variants of: B1; test: self-cleavage kobs at 640 uM GlcN6P; higher = faster cleavage; RNA array
# Outline: as §1
# [3] = variants of: B1; test: self-cleavage kobs at 2500 uM GlcN6P; higher = faster cleavage; RNA array
# Outline: as §1
# [4] = variants of: B1; test: self-cleavage kobs at 10000 uM GlcN6P; higher = faster cleavage; RNA array
# Outline: as §1
# [5] = variants of: B1; test: self-cleavage kobs at 160 uM GlcN6P; higher = faster cleavage; RNA array
# Outline: as §1
Variant,self-cleavage kobs at 40 uM GlcN6P [1] [s⁻¹],self-cleavage kobs at 640 uM GlcN6P [2] [s⁻¹],self-cleavage kobs at 2500 uM GlcN6P [3] [s⁻¹],self-cleavage kobs at 10000 uM GlcN6P [4] [s⁻¹],self-cleavage kobs at 160 uM GlcN6P [5] [s⁻¹]
A14C A42C,< 1e-05,< 1e-05,< 1e-05,,
A6U C58A G59C A64G,< 1e-05,,,< 1e-05,
C34G A42G U56G C67A,< 1e-05,,,< 1e-05,
U47C A48C,< 1e-05,,,,< 1e-05
C34A U47A,< 1e-05,,,,
C34G C50G C68A C70U,8.07e-05 ± 2.3e-05,,0.000366 ± 0.00013,5.45e-05 ± 1.1e-05,
G40U C61A G66A C70U,< 1e-05,,,< 1e-05,
C34U G38C,< 1e-05,< 1e-05,,< 1e-05,< 1e-05
A36G C50U U57A,< 1e-05,,,< 1e-05,
A36U G59U,< 1e-05,< 1e-05,,< 1e-05,
G37U G41U U65C,< 1e-05,,,,
G32C U57C,< 1e-05,< 1e-05,,,< 1e-05
A6C G40A,< 1e-05,,,2.46e-05 ± 9.8e-06,< 1e-05
A33G U65A,< 1e-05,< 1e-05,< 1e-05,< 1e-05,
U56C G60U C68U,< 1e-05,,,,
G38U G40C G60A,< 1e-05,,,,
C16U C50G,4.26e-05 ± 1.3e-05,4.35e-05 ± 1.3e-05,,,3.28e-05 ± 1.4e-05
A6C A12U A42U,< 1e-05,< 1e-05,,< 1e-05,
C10U G43C,< 1e-05,< 1e-05,< 1e-05,< 1e-05,< 1e-05
G40C U54G U56G,4.04e-05 ± 1.9e-05,,0.000625 ± 0.00018,0.000719 ± 0.00012,
C8A A33U C34A U56A,< 1e-05,,,,
G7C C34U G35A G37U A42U G43U C71A,< 1e-05,< 1e-05,,,
A6U A12U G32C A33C C50A,< 1e-05,,,< 1e-05,
U49C C70A,< 1e-05,,,,

Variant,self-cleavage kobs at 40 uM GlcN6P [1] [s⁻¹],self-cleavage kobs at 640 uM GlcN6P [2] [s⁻¹],self-cleavage kobs at 2500 uM GlcN6P [3] [s⁻¹],self-cleavage kobs at 10000 uM GlcN6P [4] [s⁻¹],self-cleavage kobs at 160 uM GlcN6P [5] [s⁻¹]
A6C G29A G40A G44U,< 1e-05,,,< 1e-05,
A6U C11A A53U,< 1e-05,< 1e-05,,< 1e-05,
C11G A48U,< 1e-05,< 1e-05,,< 1e-05,< 1e-05
U46G G51C,< 1e-05,< 1e-05,,< 1e-05,
A52C C61U,< 1e-05,< 1e-05,< 1e-05,< 1e-05,
A15C A39G U56G,4.71e-05 ± 1.6e-05,,,0.00218 ± 0.00029,
G37A G38A G41A,< 1e-05,,,< 1e-05,
C10A C16A G41U,< 1e-05,,,< 1e-05,
U47A C71U,0.000701 ± 8.3e-05,0.00323 ± 0.00057,0.00535 ± 0.001,0.0342 ± 0.0081,0.0018 ± 0.0003
G29A A39C G59U,< 1e-05,,,,
G7C C8U A39U A53U,< 1e-05,,,< 1e-05,
A48U U55G G62C,< 1e-05,< 1e-05,,< 1e-05,
A6C U31C C68G,< 1e-05,,,,
G32U G63A C67U,< 1e-05,,< 1e-05,< 1e-05,
U54A G63C,< 1e-05,,,< 1e-05,
C16G G44U U65A,< 1e-05,,< 1e-05,,
A6G U30G G35U U45C G59U,< 1e-05,,,< 1e-05,
U31G A42C,< 1e-05,,< 1e-05,,< 1e-05
G7U G40A,< 1e-05,,,,
U46A U49G,< 1e-05,,,2.85e-05 ± 1.2e-05,
G41C G60C,< 1e-05,< 1e-05,< 1e-05,< 1e-05,< 1e-05
C16U A53C U54A,0.000103 ± 2.4e-05,,,0.00236 ± 0.00047,
C11G G41A,< 1e-05,< 1e-05,< 1e-05,< 1e-05,
C10G G35C G40A U57G,< 1e-05,,< 1e-05,,

Variant,self-cleavage kobs at 40 uM GlcN6P [1] [s⁻¹],self-cleavage kobs at 640 uM GlcN6P [2] [s⁻¹],self-cleavage kobs at 2500 uM GlcN6P [3] [s⁻¹],self-cleavage kobs at 10000 uM GlcN6P [4] [s⁻¹],self-cleavage kobs at 160 uM GlcN6P [5] [s⁻¹]
A42U G62C,< 1e-05,< 1e-05,,< 1e-05,
A6G G32A G37C U46G C58A C67G,0.000232 ± 6.3e-05,0.000494 ± 0.00014,,0.000132 ± 3.3e-05,
A6G G63A,< 1e-05,< 1e-05,< 1e-05,< 1e-05,< 1e-05
C16U A36G,< 1e-05,< 1e-05,,,< 1e-05
A12C G38C U45A,< 1e-05,,,< 1e-05,
A14C A52C,< 1e-05,< 1e-05,,< 1e-05,< 1e-05
C11G A36G U49A U65C C70U,< 1e-05,,,< 1e-05,
C11G G32A,< 1e-05,< 1e-05,,< 1e-05,< 1e-05
A42U U46C G51C C61A,< 1e-05,,,,
A36U C50G,6.51e-05 ± 1.4e-05,2.94e-05 ± 1.3e-05,0.000455 ± 0.00018,,8.01e-05 ± 1.4e-05
A36U U69G C71U,0.000104 ± 4.8e-05,,,,
G32U A48U C58U C68U,< 1e-05,,,,
G44U U49C U57A,< 1e-05,< 1e-05,,,
C10U G32A A39C U57C C61G C68G,< 1e-05,< 1e-05,,< 1e-05,
C58G G59U,< 1e-05,< 1e-05,< 1e-05,< 1e-05,< 1e-05
C11G G44A,< 1e-05,< 1e-05,,< 1e-05,< 1e-05
G9A C11G A52C C68U,< 1e-05,,,< 1e-05,
G7U C11G A12C A42U,< 1e-05,,< 1e-05,,
C34U A52C,< 1e-05,< 1e-05,< 1e-05,< 1e-05,< 1e-05
G32C A36G,< 1e-05,< 1e-05,< 1e-05,< 1e-05,< 1e-05
U31A G59A G62A,< 1e-05,,,,
C16U G44U U57A C68A,< 1e-05,< 1e-05,< 1e-05,< 1e-05,< 1e-05
C8G C58A,< 1e-05,< 1e-05,< 1e-05,< 1e-05,< 1e-05
A12C U55G,0.000833 ± 0.00013,0.00404 ± 0.00084,0.00822 ± 0.0022,0.0274 ± 0.0044,0.000979 ± 0.00021

Variant,self-cleavage kobs at 40 uM GlcN6P [1] [s⁻¹],self-cleavage kobs at 640 uM GlcN6P [2] [s⁻¹],self-cleavage kobs at 2500 uM GlcN6P [3] [s⁻¹],self-cleavage kobs at 10000 uM GlcN6P [4] [s⁻¹],self-cleavage kobs at 160 uM GlcN6P [5] [s⁻¹]
A36G C58U,< 1e-05,< 1e-05,< 1e-05,< 1e-05,
G13C A52C,< 1e-05,< 1e-05,< 1e-05,,
A33G U54G U65G,< 1e-05,,,< 1e-05,
C8A U49G,< 1e-05,< 1e-05,< 1e-05,< 1e-05,< 1e-05
G51C C61U,< 1e-05,,,,
G13U G41A U49G U55G,< 1e-05,,< 1e-05,,
G13U A39C G44A,< 1e-05,,,< 1e-05,
C11A G40C U54A,< 1e-05,,,,
G40A U54G,0.00036 ± 6.8e-05,0.0015 ± 0.00038,0.00184 ± 0.00065,0.00643 ± 0.0015,
G7A A42G C70U,< 1e-05,,< 1e-05,,
U54G C67G,0.000338 ± 4.2e-05,0.00079 ± 0.00024,0.000568 ± 0.00012,0.00398 ± 0.0006,0.000142 ± 4.5e-05
A15G C34U,< 1e-05,< 1e-05,< 1e-05,< 1e-05,< 1e-05
C10U G40C,< 1e-05,,< 1e-05,< 1e-05,< 1e-05
A28G G43C U45A C67G,< 1e-05,,,,
C8U A42U G44A U56C,< 1e-05,,,,
G13A U31A G59C C70A,< 1e-05,,,,
G32A G51A,< 1e-05,< 1e-05,,< 1e-05,< 1e-05
U30G G60C,< 1e-05,< 1e-05,,< 1e-05,
G41U G62C C70U,< 1e-05,< 1e-05,,< 1e-05,
A6C C10G G41A U49G G60A,< 1e-05,,,,
C8A C11U U46C A53U,< 1e-05,,,,
G7U A14C U56G,< 1e-05,< 1e-05,< 1e-05,< 1e-05,< 1e-05
